# Values joined by “and” are separate entries in the source; they are usually repeats but may differ in a detail not shown here. Equal entries are not always repeated.
# Legend:
# [1] = target: NOD-derived murine SIRPα (NOD allele of Sirpα) on NOD mouse macrophages (mouse (NOD strain)) (UniProt P97797); test: graded hCD47-Fc on NOD macrophages, clustered (anti-SIRPα mAb pre-treatment) against unclustered
# [2] = target: NOD-derived murine SIRPα (NOD allele of Sirpα) on NOD mouse macrophages (mouse (NOD strain)) (UniProt P97797); test: graded hCD47-Fc on unmanipulated fresh NOD macrophages (unclustered), anti-human Fc-HRP colorimetric read-out
# [3] = target: NOD-derived murine SIRPα (NOD allele of Sirpα) on NOD mouse macrophages (mouse (NOD strain)) (UniProt P97797); test: graded hCD47-Fc on NOD macrophages pre-treated with a monoclonal antibody to the SIRPα ectodomain (clustered), anti-human Fc-HRP colorimetric read-out
# [4] = target: NOD-derived murine SIRPα (NOD allele of Sirpα) on NOD mouse macrophages (mouse (NOD strain)) (UniProt P97797); test: graded mCD47-Fc on adherent fresh macrophages, anti-human Fc-HRP colorimetric read-out
# Chain of UniProt P97797 (P97797 32-513): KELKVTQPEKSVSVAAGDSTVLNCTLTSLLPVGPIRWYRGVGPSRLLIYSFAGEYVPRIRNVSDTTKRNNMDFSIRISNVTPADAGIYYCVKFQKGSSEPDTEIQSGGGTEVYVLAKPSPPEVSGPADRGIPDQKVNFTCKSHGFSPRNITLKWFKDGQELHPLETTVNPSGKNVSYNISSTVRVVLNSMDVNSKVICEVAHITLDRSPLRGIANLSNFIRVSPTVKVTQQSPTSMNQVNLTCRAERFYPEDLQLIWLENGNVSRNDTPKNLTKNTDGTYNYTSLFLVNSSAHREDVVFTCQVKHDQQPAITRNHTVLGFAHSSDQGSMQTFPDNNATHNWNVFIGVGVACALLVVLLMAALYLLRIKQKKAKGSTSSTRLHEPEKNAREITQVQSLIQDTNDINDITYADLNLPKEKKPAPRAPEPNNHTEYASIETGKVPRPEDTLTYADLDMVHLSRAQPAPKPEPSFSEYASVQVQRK
"fold rise in affinity, clustered against unclustered [1]",Kd [2],Kd [3],fold lower Kd than the NOR SIRPα-mCD47 interaction [4],Substance
> 10 fold,1.6 nM,0.16 nM,,"human CD47 IgV domain fused to human IgG Fc (hCD47-Fc), made in 293F cells (from UniProt Q08722 19-135) (Fc fusion)"
,,,4.7 fold and > 4 fold,Mouse CD47-Fc (mCD47-Fc) fusion protein (from UniProt Q61735 19-133) (Fc fusion)
